Data from patent publication US9260500B2, “Peptide and use thereof” (Takeda Pharmaceutical Company Limited, priority 2009, dated 2016).
Starred links: 1 amine or outer side, 2 acyl side, 3 side chain; linkers in the order of their positions; H or OH if unused. Non-standard residues stand in square brackets, D forms with d. No end group written: not given here. *: point of attachment. 4‑Guanidinomethylbenzoyl = N=C(N)NCc1ccc(C(=O)*)cc1; tBuAla = CC(C)(C)C[C@H](N)C(=O)O; 4Pal = N[C@@H](Cc1ccncc1)C(=O)O; Aad = N[C@@H](CCCC(=O)O)C(=O)O; Cha = N[C@@H](CC1CCCCC1)C(=O)O; Isonicotinoyl = O=C(c1ccncc1)*; Suc = O=C(CCC(=O)[*:2])[*:1]; 4Amb = NCc1ccc(C(=O)O)cc1; Iva = CC[C@](C)(N)C(=O)O; Nle = CCCC[C@H](N)C(=O)O; Aib = CC(C)(N)C(=O)O; Ahx = NCCCCCC(=O)O

Key:
[1] = target: T1, human Y2 receptor (Homo sapiens, UniProt P49146); test: Receptor Binding Assay (RBA) for Human Y2, [125I]-PYY displacement on hY2R/CHO membrane fraction; details: IC50 of test compound/IC50 of PYY(3-36) (PYY(3-36) taken as 1)
T1 construct: expressed in transfected cells; membrane fraction
T1 sequence (P49146 1-381): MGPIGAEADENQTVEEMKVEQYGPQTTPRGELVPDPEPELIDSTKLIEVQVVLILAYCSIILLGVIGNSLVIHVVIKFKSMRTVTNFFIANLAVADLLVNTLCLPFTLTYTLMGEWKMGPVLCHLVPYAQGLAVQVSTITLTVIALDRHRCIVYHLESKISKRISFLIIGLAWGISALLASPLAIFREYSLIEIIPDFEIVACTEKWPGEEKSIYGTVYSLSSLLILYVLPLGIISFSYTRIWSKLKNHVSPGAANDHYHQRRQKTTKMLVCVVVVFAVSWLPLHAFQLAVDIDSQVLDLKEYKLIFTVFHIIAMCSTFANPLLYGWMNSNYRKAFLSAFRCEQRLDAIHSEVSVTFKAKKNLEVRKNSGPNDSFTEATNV
Description: (1) Construction of Expression Plasmid for the Human Y2 Receptor (Y2R) Gene
PCR was performed by a reaction using Pfu DNA polymerase ([…]), with a human brain cDNA (PT3158-1, Clontech) as the template, wherein synthetic DNAs with the following sequences were used as a combination of 5′ and 3′ primers, whereby the human Y2R gene was cloned. Primer 1 was prepared on the basis of base sequence information on the human Y2R gene (Refseq ID No. NM_000910) with the addition of Kozak's consensus sequence. Primer 2 was prepared on the basis of base sequence information on the human Y2R gene.
The PCR product obtained was cloned into pCR4-Blunt-TOPO (Invitrogen), and the plasmid was extracted according to a conventional method (QIAwell 8 Plus, QIAGEN). After confirming the base sequence, the human Y2R gene was re-cloned by a PCR reaction with the plasmid DNA as the template, using Primer 1 as the 5′ primer and Primer 2 as the 3′ primer. The PCR was performed using the Pyrobest DNA polymerase (TaKaRa). The PCR product obtained was re-cloned into pCR-Blunt II-TOPO (Invitrogen), and the plasmid was extracted according to a conventional method (QIAGEN). An Xho I restriction enzyme digestion site and an Spe I restriction enzyme digestion site are present in the cloning site of the pCR-Blunt II-TOPO; a plasmid clone was selected wherein the human Y2R gene was inserted in the orientation such that the Xho I restriction enzyme digestion site was positioned upstream of Primer 1, and the Spe I restriction enzyme digestion site was positioned downstream of Primer 2. After confirming the base sequence, the plasmid clone was digested with the restriction enzymes Xho I and Spe I to yield a DNA fragment. The DNA fragment was inserted into the animal cell expression vector pAKKO-111H (the same plasmid as pAKKO-1.111H described in Biochem. Biophys. Acta, Hinuma, S. et al., 1219, 251-259 (1994)), which was enzymatically digested with Sal I and Spe I, to yield the expression plasmid pAK-hY2R (pAKKO-111H/Y2R).
(2) Test Method: Receptor Binding Assay (RBA) for Human Y2
A human NPY2R (hY2R) stable expression cell line was acquired by transducing the animal cell expression plasmid pAK-hY2R into CHO/dhfr-cells using the CellPhect Transfection kit (Amersham Pharmacia Biotech Co.). First, 240 μl of Buffer A (attached to the CellPhect Transfection kit) was added to 9.6 μg of the plasmid DNA dissolved in 240 μl of distilled water; this mixture was stirred and allowed to stand for 10 minutes, after which 480 μL of Buffer B (attached to the CellPhect Transfection kit) was added, and the mixture was vigorously stirred to form a liposome containing the DNA. 2.5×10^5 or 4×10^5 CHO/dhfr− cells (obtained from ATCC) were seeded to 60 mm petri dishes, and cultured in Ham's F-12 medium (Sigma Co.) containing 10% fetal bovine serum (BioWest Co.) at 37° C. in 5% gaseous carbon dioxide for 1 day, after which 480 μL of the liposome was added drop by drop on to the cells in each petri dish. This was cultured at 37° C. in 5% gaseous carbon dioxide for 6 hours, after which the cells were twice washed with serum-free Ham's F-12 medium; 3 mL of 15% glycerol was added onto the cells in the petri dish and treated for 2 minutes. This was again washed 3 times with serum-free Ham's F-12 medium, after which the cells were cultured in Ham's F-12 medium containing 10% fetal bovine serum at 37° C. in 5% gaseous carbon dioxide. The cells were dispersed by trypsinization and recovered from the petri dishes, and seeded to a 6-well plate at 2.5×10^4 or 4×10^4 cells per well; cultivation was begun in Dulbecco's modified Eagle medium <DMEM> medium (Sigma Co.) containing dialyzed 10% fetal bovine serum (Invitrogen Co.) at 37° C. in 5% gaseous carbon dioxide. Since plasmid-introduced transformant CHO cells grow in the medium, whereas cells without plasmid introduction die gradually, about 20 colonies of transformed CHO cell that had grown 9-13 days after the start of the cultivation were isolated. […]

[2] = target: T1, human Y2 receptor; test: Human Y2 Receptor G Protein Binding Assay (GBA), [35S]GTPγS; assay type: biochemical; details: EC50 of test compound/EC50 of PYY(3-36) (PYY3-36 taken as 1), hY2R/CHO membrane fraction
Description: (3) Test Method: Human Y2 Receptor G Protein Binding Assay (GBA)
The agonist activity of the compound of the present invention against the human Y2 receptor was measured by the method described below.
2 μL of the test compound, serially diluted with DMSO from 100 μM to 1 nM, was dispensed to a 96-well plate, and 100 μL of the membrane fraction, previously diluted with an assay buffer (50 mM Tris, 5 mM MgCl2, 150 mM NaCl, […], 0.03% NaN3, 0.1% BSA, pH 7.4) to 1 μg protein/mL, was dispensed thereto, subsequently, 100 μL of a [^35S]GTPγS (NEG030H, PerkinElmer, previously diluted with the assay buffer to 1 nM) was added, and they were mixed by pipetting. After incubation at room temperature for 120 minutes, the mixture was filtered through the cell harvester FilterMate (PerkinElmer) using the UniFilter-96 GF/C (PerkinElmer), and the filter was washed 3 times with a filtering buffer (50 mM Tris, 5 mM MgCl2, 150 mM NaCl, 0.03% NaN3, 0.05% CHAPS, pH 7.4). Thereafter, UniFilter-96 GF/C was dried in a mechanical drier for 1 hour, 15 μl of the liquid scintillator MicroScint O (PerkinElmer) was added to each well, and a measurement was taken using TopCount (PerkinElmer). The data obtained were analyzed using Prism to calculate the EC50 value. The agonist activity of the test compound was expressed as a ratio to the EC50 value of PYY3-36 taken as 1 (EC50 Ratio: EC50 of test compound/EC50 of PYY(3-36)). The results are shown in the GBA column in Table 5 (Table 5-1-Table 5-10).

| Substance | RBA IC50 Ratio [1] | GBA EC50 Ratio [2] |
| --- | --- | --- |
| 3-Carboxypropionyl-[Acp22, D-Pro24, Cha27,36, Leu(Me)28, Lys30, Aib31]-PYY(22-36) (Suc-[Ahx]S[dP]RH[Cha][tBuAla]NK[Aib]TRQR[Cha]-NH2; SMILES C[C@@H](O)[C@H](NC(=O)C(C)(C)NC(=O)[C@H](CCCCN)NC(=O)[C@H](CC(N)=O)NC(=O)[C@H](CC(C)(C)C)NC(=O)[C@H](CC1CCCCC1)NC(=O)[C@H](Cc1c[nH]cn1)NC(=O)[C@H](CCCNC(=N)N)NC(=O)[C@H]1CCCN1C(=O)[C@H](CO)NC(=O)CCCCCNC(=O)CCC(=O)O)C(=O)N[C@@H](CCCNC(=N)N)C(=O)N[C@@H](CCC(N)=O)C(=O)N[C@@H](CCCNC(=N)N)C(=O)N[C@@H](CC1CCCCC1)C(N)=O) [compound No. 185] | 1.7 | 1.2 |
| 4-Aminomethylbenzoyl-[Ala26, Ile28, VAl31]-PYY(25-36) ([4Amb]RAYINLVTRQRY-NH2; N-terminus assumed; SMILES CC[C@H](C)[C@H](NC(=O)[C@H](Cc1ccc(O)cc1)NC(=O)[C@H](C)NC(=O)[C@H](CCCNC(=N)N)NC(=O)c1ccc(CN)cc1)C(=O)N[C@@H](CC(N)=O)C(=O)N[C@@H](CC(C)C)C(=O)N[C@H](C(=O)N[C@H](C(=O)N[C@@H](CCCNC(=N)N)C(=O)N[C@@H](CCC(N)=O)C(=O)N[C@@H](CCCNC(=N)N)C(=O)N[C@@H](Cc1ccc(O)cc1)C(N)=O)[C@@H](C)O)C(C)C) [compound No. 39] | 7.2 | 4.0 |
| 4-Guanidinomethylbenzoyl-[Iva25, Cha27,36, Aib28,31, Lys30]-PYY(25-36) ({4‑Guanidinomethylbenzoyl}-[Iva]H[Cha][Aib]NK[Aib]TRQR[Cha]-NH2; SMILES CC[C@](C)(NC(=O)c1ccc(CNC(=N)N)cc1)C(=O)N[C@@H](Cc1c[nH]cn1)C(=O)N[C@@H](CC1CCCCC1)C(=O)NC(C)(C)C(=O)N[C@@H](CC(N)=O)C(=O)N[C@@H](CCCCN)C(=O)NC(C)(C)C(=O)N[C@H](C(=O)N[C@@H](CCCNC(=N)N)C(=O)N[C@@H](CCC(N)=O)C(=O)N[C@@H](CCCNC(=N)N)C(=O)N[C@@H](CC1CCCCC1)C(N)=O)[C@@H](C)O) [compound No. 252] | 6.3 | 2.8 |
| 4-Guanidinomethylbenzoyl-[Nle25, Cha27,28,31,36, Arg30]-PYY(25-36) ({4‑Guanidinomethylbenzoyl}-[Nle]H[Cha][Cha]NR[Cha]TRQR[Cha]-NH2; SMILES CCCC[C@H](NC(=O)c1ccc(CNC(=N)N)cc1)C(=O)N[C@@H](Cc1c[nH]cn1)C(=O)N[C@@H](CC1CCCCC1)C(=O)N[C@@H](CC1CCCCC1)C(=O)N[C@@H](CC(N)=O)C(=O)N[C@@H](CCCNC(=N)N)C(=O)N[C@@H](CC1CCCCC1)C(=O)N[C@H](C(=O)N[C@@H](CCCNC(=N)N)C(=O)N[C@@H](CCC(N)=O)C(=O)N[C@@H](CCCNC(=N)N)C(=O)N[C@@H](CC1CCCCC1)C(N)=O)[C@@H](C)O) [compound No. 76] | 7.2 | 4.5 |
| 4-Pyridinecarbonyl-[Glu23, D-Pro24, Nle25, Pya(4)26, Cha27,36, Aib28,31, Lys30]-PYY(23-36) (Isonicotinoyl-E[dP][Nle][4Pal][Cha][Aib]NK[Aib]TRQR[Cha]-NH2; SMILES CCCC[C@H](NC(=O)[C@H]1CCCN1C(=O)[C@H](CCC(=O)O)NC(=O)c1ccncc1)C(=O)N[C@@H](Cc1ccncc1)C(=O)N[C@@H](CC1CCCCC1)C(=O)NC(C)(C)C(=O)N[C@@H](CC(N)=O)C(=O)N[C@@H](CCCCN)C(=O)NC(C)(C)C(=O)N[C@H](C(=O)N[C@@H](CCCNC(=N)N)C(=O)N[C@@H](CCC(N)=O)C(=O)N[C@@H](CCCNC(=N)N)C(=O)N[C@@H](CC1CCCCC1)C(N)=O)[C@@H](C)O) [compound No. 228] | 8.1 | 5.7 |
| 4-Pyridinecarbonyl-[Glu23, D-Pro24, Pya(4)26, Cha27,36, Aib28,31, Lys30]-PYY(23-36) (Isonicotinoyl-E[dP]R[4Pal][Cha][Aib]NK[Aib]TRQR[Cha]-NH2; SMILES C[C@@H](O)[C@H](NC(=O)C(C)(C)NC(=O)[C@H](CCCCN)NC(=O)[C@H](CC(N)=O)NC(=O)C(C)(C)NC(=O)[C@H](CC1CCCCC1)NC(=O)[C@H](Cc1ccncc1)NC(=O)[C@H](CCCNC(=N)N)NC(=O)[C@H]1CCCN1C(=O)[C@H](CCC(=O)O)NC(=O)c1ccncc1)C(=O)N[C@@H](CCCNC(=N)N)C(=O)N[C@@H](CCC(N)=O)C(=O)N[C@@H](CCCNC(=N)N)C(=O)N[C@@H](CC1CCCCC1)C(N)=O) [compound No. 215] | 1.9 | 1.8 |
| Ac-[Aad23, D-Pro24, Cha27,28,36, Aib31]-PYY(23-36) (Ac-[Aad][dP]RH[Cha][Cha]NL[Aib]TRQR[Cha]-NH2; SMILES CC(=O)N[C@@H](CCCC(=O)O)C(=O)N1CCC[C@@H]1C(=O)N[C@@H](CCCNC(=N)N)C(=O)N[C@@H](Cc1c[nH]cn1)C(=O)N[C@@H](CC1CCCCC1)C(=O)N[C@@H](CC1CCCCC1)C(=O)N[C@@H](CC(N)=O)C(=O)N[C@@H](CC(C)C)C(=O)NC(C)(C)C(=O)N[C@H](C(=O)N[C@@H](CCCNC(=N)N)C(=O)N[C@@H](CCC(N)=O)C(=O)N[C@@H](CCCNC(=N)N)C(=O)N[C@@H](CC1CCCCC1)C(N)=O)[C@@H](C)O) [compound No. 159] | 2.8 | 1.2 |
